T1: Human VE-PTP (HPTP-β) containing first eight FN3 repeats with C-terminal His6 tag (Human ½ VE-PTP ECD) (human, UniProt P23467 23-820)
T1 construct: Produced in HEK293 cells and purified by the His tag; it was not cut off; also called Human Beta ½ ECD
T1 sequence: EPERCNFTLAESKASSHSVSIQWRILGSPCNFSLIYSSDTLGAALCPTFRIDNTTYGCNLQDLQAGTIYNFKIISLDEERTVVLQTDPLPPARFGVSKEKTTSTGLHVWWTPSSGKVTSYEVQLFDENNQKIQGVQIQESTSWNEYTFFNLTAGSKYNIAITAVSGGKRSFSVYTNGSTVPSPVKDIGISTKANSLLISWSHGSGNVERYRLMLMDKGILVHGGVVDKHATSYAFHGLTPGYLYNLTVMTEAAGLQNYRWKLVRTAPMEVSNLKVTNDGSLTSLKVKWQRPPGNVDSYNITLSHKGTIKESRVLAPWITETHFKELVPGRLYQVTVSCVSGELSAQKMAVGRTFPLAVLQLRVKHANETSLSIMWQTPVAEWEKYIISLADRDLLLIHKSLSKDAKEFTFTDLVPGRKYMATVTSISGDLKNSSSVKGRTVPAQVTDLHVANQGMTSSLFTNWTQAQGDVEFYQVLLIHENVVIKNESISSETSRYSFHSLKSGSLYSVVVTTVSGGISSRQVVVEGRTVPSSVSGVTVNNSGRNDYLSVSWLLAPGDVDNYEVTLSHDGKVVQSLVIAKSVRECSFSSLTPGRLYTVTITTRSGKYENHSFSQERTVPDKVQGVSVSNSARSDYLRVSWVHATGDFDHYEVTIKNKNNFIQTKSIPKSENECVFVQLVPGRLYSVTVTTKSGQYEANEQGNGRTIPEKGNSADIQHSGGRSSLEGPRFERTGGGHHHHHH

B1: humanized R15E6 variant HC2LC3 (antibody, human IgG4 S228P, kappa, V domains shown)
VH: EVQLVESGGGLVQPGGSLRLSCAASGFTFNANAMNWVRQAPGKGLEWVGRIRTKSNNYATYYAGSVKDRFTISRDDSKNSLYLQMNSLKTEDTAVYYCVRDYYGSSAWITYWGQGTLVTVSS
VL: DIQMTQSPFSLSASVGDRVTITCKASQHVGTAVAWYQQKPGKAPKLLIYWASTRHTGVPSRFSGSGSGTDFTLTISSLQPEDFATYFCQQYSSYPFTFGGGTKLEIKR
notes: Human IgG4 (S228P) / kappa, expressed in CHO cells; Signal peptides left out by range; also called VH2-VL3
B2: humanized R15E6 variant HC2LC2 (antibody, human IgG4 S228P, kappa, V domains shown)
VH: EVQLVESGGGLVQPGGSLRLSCAASGFTFNANAMNWVRQAPGKGLEWVGRIRTKSNNYATYYAGSVKDRFTISRDDSKNSLYLQMNSLKTEDTAVYYCVRDYYGSSAWITYWGQGTLVTVSS
VL: DIVMTQSPDSLAVSLGERATINCKASQHVGTAVAWYQQKPGQPPKLLIYWASTRHTGVPDRFSGSGSGTDFTLTISSLQAEDVAVYYCQQYSSYPFTFGQGTKLEIKR
notes: Human IgG4 (S228P) / kappa, expressed in CHO cells; Signal peptides left out by range; also called VH2-VL2
B3: humanized R15E6 variant HC3LC4 (antibody, human IgG4 S228P, kappa, V domains shown)
VH: EVQLVESGGGLVQPGRSLRLSCTASGFTFNANAMNWVRQAPGKGLEWVGRIRTKSNNYATYYAGSVKDRFTISRDDSKNIAYLQMNSLKTEDTAVYYCVRDYYGSSAWITYWGQGTLVTVSS
VL: DIVMTQSPDSLAVSLGERATINCKASQHVGTAVAWYQQKPEQPPKLLIYWASTRHTGVPDRFSGSGSGTDFTLTISSLQAEDVAVYYCQQYSSYPFTFGGGTKVEIKR
notes: Human IgG4 (S228P) / kappa, expressed in CHO cells; Signal peptides left out by range; also called VH3-VL4

Target: T1, Human VE-PTP (HPTP-β) containing first …
Experiment: SPR (Biacore 3000), antibody captured on anti-human IgG, antigen as analyte 25-0 nM
Method: Samples of each variant were further assessed by Biacore analysis to determine the binding affinity. Antibody binding experiments were performed on Biacore 3000™ at 25° C. Assay buffer: 10 mM HEPES buffer (pH 7.4), 150 mM NaCl, 3 mM EDTA, 0.05% P20 (polyoxyethylenesorbitan). […] Conjugation buffer: 10 mM sodium acetate buffer (pH 5). The flow rate used for capturing the ligand was 5 μL/min. The flow rate for the kinetic analysis was 50 μL/min. Flow cell 1 and […] of the CM5 chip were coated with maximum amounts of goat anti-human IgG. Approximately 150 RU of the test antibody was captured on flow cell 2, 3, and 4 as indicated. The antigen was flowed over the chip. Binding of the antigen to the antibodies was monitored in real time. The KD was determined from the observed kₒₙ and koff values.

Row | Binder | Ka [M⁻¹] | Kd [nM] | koff [s⁻¹] | kon [M⁻¹ s⁻¹]
1 | B1 | 6.75e+08 | 1.48 | 0.00123 | 890000
2 | B2 | 1.98e+07 | 50.6 | 0.00215 | 42500
3 | B3 | 1.23e+08 | 8.14 | 0.00109 | 134000

Reference: patent US20190077863A1 (AERPIO PHARMACEUTICALS, published 2019)
